Our source for the EC50 and Kd values is patent US20250368742A1 (D2M BIOTHERAPEUTICS, published 2025).

Numbering of substitutions follows the chain as printed. Where two headings read alike, the source gives them in different places.

The target of test [1] is T1, human MICA004 on cells (human).
T1 construct: whole, on cells; also called CHO-MICA004; C1R-MICA004
Nature of the test: flow cytometry, CHO-MICA004 cells. Background: Flow cytometry measures light scatter and fluorescence of single cells or particles in a stream.
Protocol: (§1) IgG1 is an isotype control (IgG). The antibody binding signals of APC (gMFI) to MICA/B were measured by flow cytometry.
(§2) After an incubation time of 30 minutes, the plate was centrifuged and cells were washed with PBS three times. […] After mixing for 30 minutes at room temperature, cells were washed with PBS twice. Fluorescent signal was detected and quantified by flow cytometry (Attune™ CytPix™, ThermoFisher) within the population of live cells (viability dye PI negative).

Test [2] has as its target T1, human MICA004 on cells. Nature of the test: flow cytometry, CHO-MICA004 cells. The source holds these as a separate data set.
The target in another test is T2, human MICA008 on cells (human).
T2 construct: whole, on cells; also called CHO-MICA008; C1R-MICA008
Nature of the test: flow cytometry, HeLa cells (MICA008).

The target of test [3] is T3, MICA002-ECD-HISAvi (human, UniProt Q29983 24-308).
T3 construct: also called MICA002 polypeptide
T3 chain: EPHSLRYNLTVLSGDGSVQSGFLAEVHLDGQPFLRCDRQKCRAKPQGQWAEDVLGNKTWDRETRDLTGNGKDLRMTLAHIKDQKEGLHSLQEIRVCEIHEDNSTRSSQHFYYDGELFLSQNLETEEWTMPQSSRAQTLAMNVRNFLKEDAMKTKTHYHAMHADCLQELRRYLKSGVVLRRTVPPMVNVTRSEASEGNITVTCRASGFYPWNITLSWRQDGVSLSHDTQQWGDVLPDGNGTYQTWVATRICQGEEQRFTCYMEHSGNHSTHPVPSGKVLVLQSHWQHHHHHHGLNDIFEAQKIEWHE
The experiment in a line: BLI (GatorPrime); antibody on anti-hIgG Fc probe, monomeric antigen in solution.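 Also: binding kinetics of anti-MICA/B antibodies measured by biolayer interferometry, with dissociation followed for about 10 min.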
Protocol: (§3) The binding kinetics of the antibodies were also measured using the GatorPrime BLI (Biolayer Interferometry) system (Gator Bio, USA). Specifically, the anti-MICA/B antibodies were loaded with HFC (Anti-hIgG Fc, Gator Bio, Cat #: 160003). […] The dissociation kinetics were monitored for approximately 10 minutes. The probes were regenerated between binding cycles with Regeneration Buffer (Gator Bio, Cat #: 120012). Binding kinetics were analyzed using software supplied by the manufacturer.

Test [4] addresses T4, MICA004-ECD-HISAvi (human).
T4 construct: also called MICA004 polypeptide
T4 chain: T3 chain with G14W, C36Y, L122V, M129V, K173E, G175S, T181R, G206S, W210R, S215T
Described as above.
Protocol: as §3

For test [5], the target named is T5, MICA008-ECD-HISAvi (human).
T5 construct: Two sources under one name in the two kinetic assays; also called MICA008 polypeptide
T5 chain: T3 chain with G14W, C36Y, M129V, K173E, G206S, W210R, T213I, S215T, Q251R
The description is as above.
Protocol: as §3

Test [6] has as its target T6, MICB005-ECD-HISAvi (human, UniProt Q29980 24-309).
T6 construct: Two sources under one name in the two kinetic assays; also called MICB005 polypeptide
T6 sequence: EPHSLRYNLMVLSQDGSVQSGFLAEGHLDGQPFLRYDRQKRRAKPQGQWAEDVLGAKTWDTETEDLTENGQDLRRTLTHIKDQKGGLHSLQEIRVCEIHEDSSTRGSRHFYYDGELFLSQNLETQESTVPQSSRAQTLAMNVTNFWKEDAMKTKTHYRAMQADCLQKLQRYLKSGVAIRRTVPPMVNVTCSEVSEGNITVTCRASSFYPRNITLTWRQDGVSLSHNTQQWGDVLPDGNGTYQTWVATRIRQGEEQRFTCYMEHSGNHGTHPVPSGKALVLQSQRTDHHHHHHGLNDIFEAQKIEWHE
The description is as above.
Protocol: as §3

For a further test, the target named is T7, MICA009Avi (human).
T7 construct: extracellular domain
Described as above.

Test [7] has as its target T8, Cynomolgus monkey MICA (cynoMICA) (Cynomolgus monkey (Macaca fascicularis)).
T8 construct: also called cyno monkey MICA; cyno MIC protein
The test is described as above.
Protocol: as §3

Test [8] concerns the target T3, MICA002-ECD-HISAvi. Nature of the test: SPR (Carterra); antibody captured by anti-human Fc, monomeric ECD antigen injected.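 Also: dissociation phase followed for about 10 min.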
Protocol: (§4) The dissociation kinetics were monitored for approximately 10 minutes. The chip surface was regenerated between binding cycles with 10 mM glycine HCl, pH 1.7. Binding kinetics were analyzed using software supplied by the manufacturer.
Test [9] deals with T4, MICA004-ECD-HISAvi. The test is described as above.
Protocol: as §4
Test [10] deals with T5, MICA008-ECD-HISAvi. The description is as above.
Protocol: as §4
The target in test [11] is T6, MICB005-ECD-HISAvi. The description is as above.
Protocol: as §4
The target of the next test is T9, human MICB005 on cells (human).
T9 construct: whole, on cells; also called CHO-MICB005; C1R-MICB005
The experiment in a line: flow cytometry on CHO-MICB005 cells; column HSA_1w (1 week in human serum at 37 C).

T7 sequence (Q29983 24-307): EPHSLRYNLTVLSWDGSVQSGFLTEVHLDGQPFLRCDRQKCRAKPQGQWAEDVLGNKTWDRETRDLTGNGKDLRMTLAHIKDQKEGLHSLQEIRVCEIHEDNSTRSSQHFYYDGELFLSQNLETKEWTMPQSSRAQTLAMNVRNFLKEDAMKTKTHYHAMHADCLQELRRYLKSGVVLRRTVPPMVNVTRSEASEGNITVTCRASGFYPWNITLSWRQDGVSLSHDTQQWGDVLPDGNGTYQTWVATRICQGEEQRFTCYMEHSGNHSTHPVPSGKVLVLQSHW
T2 sequence (Q29983 whole entry): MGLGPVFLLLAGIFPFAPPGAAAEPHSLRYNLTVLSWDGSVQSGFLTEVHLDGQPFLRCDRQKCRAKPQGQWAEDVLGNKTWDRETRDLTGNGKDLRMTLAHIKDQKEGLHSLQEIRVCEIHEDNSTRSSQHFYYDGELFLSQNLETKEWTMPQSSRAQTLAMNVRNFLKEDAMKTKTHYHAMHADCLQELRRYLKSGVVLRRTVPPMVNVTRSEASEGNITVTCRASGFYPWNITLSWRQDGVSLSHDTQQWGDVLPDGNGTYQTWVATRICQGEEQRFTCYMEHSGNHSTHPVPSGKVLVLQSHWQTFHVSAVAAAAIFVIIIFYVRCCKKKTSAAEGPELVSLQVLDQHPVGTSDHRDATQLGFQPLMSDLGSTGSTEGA
T1 sequence (Q29983 whole entry): as above
Protocol for MICA009Avi: as §3
Protocol for human MICA008 on cells: as §1, §2
Protocol for human MICB005 on cells: The plate was centrifuged, and cells were washed with PBS three times. […] After incubation for 30 minutes at room temperature, cells were washed with PBS twice. Signals of APC were determined by flow cytometry (Attune™ CytPix™, ThermoFisher) within the population of live cells (viability dye PI negative).
The EC50 values were calculated based on non-linear fitting curves by GraphPad Prism software.

B1: 1D5 (antibody, human IgG1, kappa, V domains shown)
VH: EIQLQQSGPELVKPGASVKVSCKASGYAFTSQNIYWVKQSHGKSLEWIGYIEPYNVVPMYNPKFKGKATLTVDKSSSSAYIHLNSLTSEDSAIYYCARSGSSNFDYWGQGTTLTVSS
VL: EIILTQSPTTMAASPGEKITITCSASSSISSHYLHWYQQKSGFSPKLLIYRTSNLASGVPARFSGSGSGTSYSLTIGTMEAEDVATYYCQQGSSLPLTFGAGTKVEIKR
notes: also called ID5
As a reminder, the EC50 is the concentration giving half of the maximal effect. As usually defined, the Kd is a measure of binding affinity in units of concentration. For the molecule B1, the concentration giving a half-maximal response (EC50) turned out to be 0.157 µg/mL with human MICA004 on cells [1], 0.193 µg/mL with human MICA004 on cells [2], 0.034 µg/mL with human MICA008 on cells and 0.229 µg/mL with human MICB005 on cells. The Kd came out at 0.0757 nM with MICA002-ECD-HISAvi [3]; 0.101 nM with MICA004-ECD-HISAvi [4]; 0.026 nM with MICA008-ECD-HISAvi [5]; 0.195 nM with MICB005-ECD-HISAvi [6]; 0.11 nM with MICA009Avi; 5.2 nM in test [7]. Further, the Kd came out at 0.47 nM with MICA002-ECD-HISAvi [8], 1.35 nM in the test with MICA004-ECD-HISAvi [9], 1.79 nM with MICA008-ECD-HISAvi [10] and 2.3 nM with MICB005-ECD-HISAvi [11].

B2: 3F9 (antibody, human IgG1, kappa, V domains shown)
VH: QVQLVESGGGLVKPGGSLRLSCAASGFTFSNYAMSWIRQAPGKGLEWVSYISPGGDYIYYADSVKGRFTISRDNAKNSLYLQMNSLRAEDTAVYYCTTDRRHYGSYAMDYWGQGTLVTVSS
VL: DIVMTQSPLSLPVTPGEPASISCRSSKSLLHSNLNTYLYWFLQKPGQSPQILIYRMSNLASGVPDRFSGSGSGTAFTLKISRVEAEDVGVYYCMQHLEYPFTFGPGTKLEIKR
notes: also called benchmark 3F9
With B2, the EC50 with human MICA004 on cells [1] is 0.443 µg/mL; in the test with human MICA004 on cells [2] it was 0.89 µg/mL; with human MICA008 on cells it was 0.115 µg/mL; with human MICB005 on cells, 0.804 µg/mL. In addition, the Kd was found to be 1.35 nM with MICA002-ECD-HISAvi [3]; 1.08 nM with MICA004-ECD-HISAvi [4]; 0.295 nM with MICA008-ECD-HISAvi [5]; 2.19 nM with MICB005-ECD-HISAvi [6]; 0.936 nM in the test with MICA009Avi; 14.3 nM in test [7]. The Kd with MICA002-ECD-HISAvi [8] turned out to be 5.67 nM; in the test with MICA004-ECD-HISAvi [9], 4.05 nM; with MICA008-ECD-HISAvi [10], 2.82 nM; with MICB005-ECD-HISAvi [11], 9.29 nM.
